Consider 8 molecules from US20240182593A1 (YUHAN, published 2024).

Substitutions are numbered along the chain they refer to. Names may count otherwise.

The target of assay [1] is T1, human OX40 protein (Sino Biological, Cat. 10481-H08H) (human, UniProt P43489 29-216).
T1 construct: Bought recombinant protein; also called CD134; TNFRSF4
T1 sequence (looked up): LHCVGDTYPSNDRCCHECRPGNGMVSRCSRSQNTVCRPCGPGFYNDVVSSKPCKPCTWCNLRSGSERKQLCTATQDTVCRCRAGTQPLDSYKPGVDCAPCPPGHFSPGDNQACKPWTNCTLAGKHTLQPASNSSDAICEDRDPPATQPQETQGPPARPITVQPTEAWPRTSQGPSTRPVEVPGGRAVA
As to the kind of experiment: ELISA, human OX40 protein coated at 0.1 ug/ml, antibody diluted 4-fold from 100 nM, HRP secondary antibody, O.D. 450 nm. As to the method:
(§1) ELISA was performed to quantitatively analyze the antigen-binding activity of the OX40-binding antibody prepared in Example 1.3 to the antigen.
(§2) More specifically, the antigen human OX40 protein (Sino Biological, Cat. 10481-H08H) was added to a 96-well plate (Thermo Scientific, Cat. 469949) at a concentration of 0.1 μg/ml, and coated overnight at 4° C. Here, 200 μl of 3% BSA (Millipore, Cat. 820451) was placed in each well and blocked at room temperature for 2 hours. The OX40-binding antibody (Example 1.3) serially diluted 4-fold from 100 nM was added thereto and reacted at room temperature for 2 hours. After washing 4 times with 300 μl of PBS/Tween-20, HRP-bound secondary antibody (Abcam, Cat. Ab98624) was treated and reacted at room temperature for 1 hour. Then, it was washed 4 times with 300 μl of PBS/Tween-20. Following 100 μl of TMB was added thereto to develop color, 100 μl of 2 N H₂SO₄ was added to stop the reaction. The absorbance was measured at 450 nm using a microplate reader (Perkin Elmer, Victor X5).

Assay [2] addresses T2, human OX40 expressed on cells (human, UniProt P43489 29-277).
T2 construct: whole, on cells
T2 sequence (looked up): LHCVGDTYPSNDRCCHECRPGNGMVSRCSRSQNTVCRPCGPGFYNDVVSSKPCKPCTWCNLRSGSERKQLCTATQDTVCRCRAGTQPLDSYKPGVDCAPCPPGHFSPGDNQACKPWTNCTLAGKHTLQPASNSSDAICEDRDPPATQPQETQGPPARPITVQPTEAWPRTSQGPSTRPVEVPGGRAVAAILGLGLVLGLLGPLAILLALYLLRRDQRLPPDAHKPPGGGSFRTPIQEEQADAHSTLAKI
The assay can be described thus: flow cytometry on activated human CD4+ T cells, fitted MFI curve. As to the method:
(§3) The activity of the OX40-binding antibody prepared in Example 1.3 to bind to activated human T cells was tested as follows.
(§4) To induce OX40 expression, cells were activated for several days prior to the binding assay. Briefly, human CD4⁺ T cells ([…] Technologies) were cultured in the presence of IL-2 (Roche Life Sciences, Indianapolis, IN) and phytohemaglutinin-leucoagglutinin (PHA-L; Roche Life Sciences, Indianapolis, IN) at a concentration of 10 μg/ml for 2 days to activate the human CD4⁺ T cells. The activated CD4⁺ T cells were incubated with OX40-binding antibody serially diluted 5-fold from 1 μM. The bound antibody was detected with a fluorescently labeled anti-human IgG polyclonal secondary antibody, and cells were stained with FITC mouse anti-human CD134 (OX40) antibody clone ACT35 (BD Pharmingen) to detect CD4⁺ T cells expressing OX40. Fluorescence intensity of staining was measured using a BD FACSCantoII flow cytometry analyzer. Mean fluorescence intensity (MFI) of OX40-binding antibody staining was calculated using FlowJo software.

Assay [3] has as its target T2, human OX40 expressed on cells. As to the kind of experiment: flow cytometry on activated human CD4+ T cells. As to the method: as §3, §4
For assay [4], the target named is T1, human OX40 protein (Sino Biological, …). The assay can be described thus: ELISA, human OX40 protein coated at 0.1 ug/ml, serially diluted antibody, HRP secondary antibody, O.D. 450 nm. As to the method: as §1, §2
The target of assay [5] is T3, cynomolgus monkey OX40 (R&D, Cat. 10311-OX) (cynomolgus monkey).
T3 construct: Bought protein; construct not described; also called Cynomolgus monkey OX40 antigen; Cyno OX40
The assay can be described thus: ELISA, cynomolgus monkey OX40 coated at 0.5 ug/ml, serially diluted antibody, goat anti-human Fab secondary antibody, O.D. 450 nm. As for the experimental part:
(§5) To determine the cross-species reactivity of anti-OX40 antibodies to mouse and cynomolgus (Cyno) monkey OX40, mouse OX40 (ACRO, Cat. OX0-M5259) and cynomolgus monkey OX40 (R&D, Cat. 10311-OX) antigens were coated on a 96-well plate at a concentration of 0.5 μg/ml, and the plate was incubated overnight at 4° C. After blocking using 3% BSA, serially diluted OX40 antibodies were treated and incubated for 1 hour at room temperature. Goat anti-human Fab (Jackson ImmunoResearch, Cat. 109-036-097) was diluted 1: 5000 and used as a secondary antibody for detection. Absorbance at 450 nm was read using a microplate reader (Molecular Device). To determine EC50 values for dose-dependent binding of OX40 binding antibodies in mice and cynomolgus monkeys, dose-response data were analyzed using a 4-parameter logistic model with GraphPad Prism.

Assay [6] has as its target T1, human OX40 protein (Sino Biological, …). As to the kind of experiment: SPR (BIACORE T200), antibody captured on protein A chip, human OX40 as analyte, 1:1 model. As to the method:
(§6) Quantitative analysis of antigen binding of the OX40-binding antibody prepared in Example 1.3 was performed using a BIACORE T200. The experimental conditions using surface plasmon resonance (SPR) were as follows: Protein A-immobilized CM5 chip (GE Healthcare) was used. 10 mM Glycine-HCl (pH 1.5) was used as the regeneration buffer, and HBS-EP (pH 7.4) was used as the running buffer, antibody dilution, and antigen dilution buffer. OX40-binding antibody was diluted with HBS-EP (pH 7.4), and human OX40 protein (Sino Biological, Cat. 10481-H08H) was serially diluted two-fold from 200 nM. Analysis was performed at all 11 concentrations (200, 100, 50, 25, 12.5, 6.25, 3.13, 1.56, 0.78, 0.39, 0 nM) including 0 nM. First, the OX40-binding antibody was captured on a chip immobilized with protein A (Thermo, Cat. 21184). In the association phase of human OX40 protein, the association time was set to 400-600 seconds and the flow rate was set to 30 μL/min. In the dissociation phase, the dissociation time was set to 400-2000 seconds and the flow rate was set to 30 μL/min. In the regeneration phase, the flow rate was set to 100 μL/min, and the flow time was set to 30 seconds. By using BIACORE Evaluation software, the data were analyzed and fitted in a 1:1 binding model.

Assay [7] addresses T4, mouse OX40 (ACRO, Cat. OX0-M5259) (mouse, UniProt P47741 20-211).
T4 construct: Bought protein; construct not described; also called mouse OX40 antigen
T4 sequence (looked up): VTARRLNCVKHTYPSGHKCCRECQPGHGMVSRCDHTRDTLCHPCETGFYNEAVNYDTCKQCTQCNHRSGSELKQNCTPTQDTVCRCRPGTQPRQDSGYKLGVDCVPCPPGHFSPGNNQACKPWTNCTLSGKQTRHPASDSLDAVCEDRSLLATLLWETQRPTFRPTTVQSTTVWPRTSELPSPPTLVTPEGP
The assay can be described thus: ELISA, mouse OX40 coated at 0.5 ug/ml, serially diluted antibody, goat anti-human Fab secondary antibody, O.D. 450 nm. As to the method:
as §5

The target in assay [8] is T1, human OX40 protein (Sino Biological, …). The assay can be described thus: SPR (BIACORE T200), same test as for the antibodies (capture on protein A chip, human OX40 as analyte), 1:1 model. As for the experimental part:
as §6

B1: O15 (antibody, V domains shown)
VH: EVQLLESGGGLVQPGGSLRLSCAASGFTFSSYSMSWVRQAPGKGLEWVSMISSGGGSTYYADSVKGRFTISRDNSKNTLYLQMNSLRAEDTAVYYCARHWRYFDYWGQGTLVTVSS
VL: QSVLTQPPSASGTPGQRVTISCSGSSSNIGNNYVSWYQQLPGTAPKLLIYADSKRPSGVPDRFSGSKSGTSASLAISGLRSEDEADYYCGAWDSSLSGYVFGGGTKLTVLG
Consider B1, for which the “EC50 (read off the curve)” value in assay [1] is roughly 0.2 nM. In assay [2], this molecule registered a Bottom of 7.36 and a Top of 102. In addition, it took 2.65 nM to reach a half-maximal effect in assay [3] (EC50).

B2: O31C (antibody, human IgG1, lambda, V domains shown)
VH: EVQLLESGGGLVQPGGSLRLSCAASGFTFSDYDMSWVRQAPGKGLEWVSSISPSSGSIYYADSVKGRFTISRDNSKNTLYLQMNSLRAEDTAVYYCAKDSIWCTNSRCYYDNAMDVWGQGTLVTVSS
VL: B1 VL with Y33A, A51S, K54N, A91S, S94Y, G98A
For B2, the 50% effective concentration (EC50 (read off the curve)) in assay [4] was roughly 0.03 nM; in assay [5], roughly 0.08 nM. Further, in assay [6], the equilibrium dissociation constant (Kd) is 122 nM. The molecule also gave a koff in assay [6] of 0.00238 s⁻¹.

B3: O212 (antibody, V domains shown)
VH: EVQLLESGGGLVQPGGSLRLSCAASGFTFSDYAMSWVRQAPGKGLEWVSWIYYDSGSKYYADSVKGRFTISRDNSKNTLYLQMNSLRAEDTAVYYCAKGPGPNGQLAFDYWGQGTLVTVSS
VL: B1 VL with S23T, N31S, Y33S, D52N, K54H, S94Y
notes: also called O212 antibody
As for B3, in assay [2], the Bottom turned out to be 5.53 and the Top was 99.4. In assay [3], the response was half-maximal at 2.17 nM (EC50). Further, in assay [5], the “EC50 (read off the curve)” value was roughly 0.02 nM. In addition, in assay [6], the Kd is 24.4 nM, the koff came to 0.00167 s⁻¹ and the kon is 68300 M⁻¹ s⁻¹.

B4: O410 (antibody, human IgG1, lambda, V domains shown)
VH: B1 VH with S31D, S33Y, M50G, S52Y, G54D, G56S, S57R, T58K, R101S, Y102R
VL: B1 VL with N31S, S35T, G42R, A51Y, K54N, S94D
Turning to B4, in assay [1], the “EC50 (read off the curve)” value was roughly 0.03 nM. In assay [2], this molecule registered a Bottom of 1.04 and a Top of 95.9. Also, the binding result in assay [7] was “no binding (tested: about 25000 pM)”. In assay [3], this molecule gave an EC50 of 0.253 nM. Further, in assay [5], the “EC50 (read off the curve)” value was roughly 0.02 nM. In addition, in assay [6], the Kd was found to be 1.24 nM and the koff amounted to 4.17e-05 s⁻¹.

B5: O34 (antibody, V domains shown)
VH: B1 VH with S31D, S33Y, M50G, G54S, S57N, T58K, R101K, Y102R
VL: B1 VL with S23T, S25P, Y33D, D52N, K54N, P60S, A91T, S94Y, F101L
Turning to B5, in assay [1], the “EC50 (read off the curve)” value is roughly 0.005 nM. In assay [2], this molecule gave a Bottom of 5.77 and a Top of 99.9. For the same molecule, the EC50 in assay [3] is 0.182 nM. Further, the “EC50 (read off the curve)” value in assay [5] was roughly 0.02 nM. In assay [6], this molecule showed an equilibrium dissociation constant (Kd) of 2.4 nM and a koff of 5.63e-05 s⁻¹.

B6: O35 (antibody, V domains shown)
VH: B1 VH with S31D, M50A, G54D, H99R, R101Q, Y102T
VL: B1 VL with S23T, N31S, Y33A, A51H, K54H, R55P
For B6, in assay [1], the “EC50 (read off the curve)” value was roughly 0.006 nM. In assay [2], this molecule gave a Bottom of -0.361 and a Top of 97.3. The same molecule registered an EC50 in assay [3] of 1.22 nM. In assay [6], this molecule came in with a Kd of 19.9 nM and a koff of 0.000203 s⁻¹.

B7: O32 (antibody, V domains shown)
VH: B1 VH with M50V
VL: B1 VL
With B7, the “EC50 (read off the curve)” value in assay [1] is roughly 0.001 nM. Moreover, in assay [2], the Bottom is 7.69 and the Top was determined as 102. In assay [3], this molecule showed an EC50 of 0.102 nM. Moreover, the 50% effective concentration (EC50 (read off the curve)) in assay [5] is roughly 0.2 nM. Besides, in assay [6], the equilibrium dissociation constant (Kd) came out at 2.05 nM and the off-rate (koff) is 4.13e-05 s⁻¹.

B8: OX40L-Fc protein (ACROBiosystems, Cat #. OX0-H5255) (Fc fusion, UniProt P23510 51-183, looked up)
chain: QVSHRYPRIQSIKVQFTEYKKEKGFILTSQKEDEIMKVQNNSVIINCDGFYLISLKGYFSQEVNISLHYQKDEEPLFQLKKVRSVNSLMVASLTYKDKVYLNVTTDNTSLDDFHVNGGELILIHQNPGEFCVL
notes: Bought; not shown: Fc part of the bought fusion protein
B8 registered a koff in assay [8] of 0.00119 s⁻¹.
